Tested on: MS2 coat protein
Assay: apparent KD of MS2 coat protein; designed switch direction (-1 OFF switch, 1 ON switch): -1; higher = weaker reporter binding
Summary of the method: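 Stalled E. coli RNA polymerase transcribed designed RNA switches on Illumina chips, which were then titrated with SNAP-549-labelled MS2 coat protein, doubling from 0.7 or 1.5 nM to 3 µM. Steps lasted from 0.8–1.5 h at the lowest concentration to 10–20 min at the highest. The apparent KD is each design's median over clusters of curve-fitted normalised fluorescence.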

[1] = input ligand: microRNA oligo, concentration not stated
[2] = Eterna round: R95, input ligand: FMN 200 uM
[3] = Eterna round: R95, input ligand: microRNA oligo, concentration not stated
[4] = Eterna round: R95, input ligand: none

| Sequence | apparent KD of MS2 coat protein (input ligand: FMN 200 uM) [nM] | apparent KD of MS2 coat protein [1] [nM] | apparent KD of MS2 coat protein (input ligand: none) [nM] | apparent KD of MS2 coat protein [2] [nM] | apparent KD of MS2 coat protein [3] [nM] | apparent KD of MS2 coat protein [4] [nM] |
| --- | --- | --- | --- | --- | --- | --- |
| CAGACCCGCCUUGGUCACAUGAGGAUCACCCAUGUUUAGGUCUAGGAUAUGGCCGUCGAGGACGGCCAGAAGGAGAAUAUCAUG [Eternabot solution 34] (Eterna round: R96, puzzle: Exclusion NG 3) | 102 | 32.1 | 43 | – | – | – |
| CUUAGACAUGAGGAUCACCCAUGUGAGGAUAUGAUGCGAAUAAGGAAGGAAGAAAGCAUCAGAAGGCACAUAUG [Mat - Mod of Hyphema D25] (puzzle: Exclusion 1) | – | – | – | 161 | 139 | 104 |
| GAUACACAUGAGGAUCACCCAUGUGAGGAUAUGCGUACGUUGUCCGUAGGCGACGUGCGCAGAAGGCGCUUGGU [Mat - Mod of JL D98] (puzzle: Exclusion 1) | – | – | – | – | 57.3 | – |
| GCCCAGCUAGGAUAUCGCACUGCAGACAUGAGGAUCACCCAUGUGAUGAGGUCUGAAUCCCGAGAAGGAGCAUGGA [Enlain] (puzzle: Exclusion 5) | – | – | – | – | 15.8 | – |
| UUUUUAUAUGAAGGAUAUACUUAACAUGAGGAUCACCCAUGUGGUGUUGUGAGUGAGUGAGUUUAGUAGAAGGUCAAGUAUUUA [JMF's solution 41] (Eterna round: R96, puzzle: Exclusion NG 2) | 663 | 527 | 380 | – | – | – |
| GUGAGGUAAGGAUAUAGGAGAAAAGAUAAGGUAUGAGAGUUCUAGAAGGUACAUGAGGAUCACCCAUGUUAGGG [JR_Exclu4_Sub086] (puzzle: Exclusion 4) | – | – | – | – | 257 | – |
| GGUUUGGGAGGAUAUGGUUUUAAUAACAUGAGGAUCACCCAUGUAAAUAGAUCCUCGAGGCCAGAAGGCUCGGGCC [-24.9, -23.72 kcal, A 28%] (Eterna round: R97, puzzle: Exclusion 5) | 405 | – | 85.7 | – | – | – |
| CUAAAUCAUGUAGGAUAUGCGUAGCGAAGCUAUGCAGAAGGACAUGAGGAUCACCCAUGUUCUUCCGUCUGCGUACAGACGGAA [Mat - Exclusion NG 1 - Mod of JL - D29] (Eterna round: R96, puzzle: Exclusion NG 1) | 337 | 29.1 | 38.2 | – | – | – |
| CGUCUGUCGGAAGGAUAUGUAGGGUGUCUUUUCCUCAGUACGAAGUACAUGAGGAUCACCCAUGUACAGAAGGUCCACAAUUAA [Essosoedso] (Eterna round: R96, puzzle: Exclusion NG 2) | 109 | 67.9 | 75.3 | – | – | – |
| UUAGUGUGAGGAUAUGGUAAAGAUAAGAUGAUGAAAGAACUCCAGAAGGCACAUGAGGAUCACCCAUGUAGAUU [Mat - Exclusion 4 - Mod of JL - D25] (puzzle: Exclusion 4) | – | – | – | 53.5 | 24.2 | 24.2 |
| AAGGAUAGAGGAUAUACAUAGAUACAGAUUCAUGUAGUCCUACAUGAGGAUCACCCAUGUAGAAGGCUAUCCUA [Fiskers Ex 2 - 12] (puzzle: Exclusion 2) | – | – | – | – | 15.7 | – |
| CUAAAUCAUGUAGGAUAUGCGUGGCGAAGCUAUGCAGAAGGACAUGAGGAUCACCCAUGUCUUUCCGUCUGCGUACAGACGGGA [JL ENG1 1.20] (Eterna round: R96, puzzle: Exclusion NG 1) | 151 | 14.5 | 21.2 | – | – | – |
| GCAGCAACUCUAAUCAACUAAACAUGAGGAUCACCCAUGUCUCAGGAUAUGGUCUGGAUUACAGGCCAGAAGGGAGAAAGCUGC [Eli exng3 - 043] (Eterna round: R96, puzzle: Exclusion NG 3) | 16.2 | 11.2 | 12.3 | – | – | – |
| GAAUAGUGAGGAUAUACUUGCAGUGUACCUCGGGUGAUCUCACUUGAGGAUCACCCAAGUAGAAGGCGCGAGGG [EX2 #22] (Eterna round: R97, puzzle: Exclusion 2) | 20.8 | – | 9.03 | – | – | – |
| UUUCCCUGUGUGAGGAUAUACUUGUUUGGGUUUUUGUAGAAGGCACAUGAGGAUCACCCAUGUAUUUUGUCGUG [JR_BME4_Sub020] (puzzle: Brourd's mod of Exclusion 4) | – | – | – | – | 40.9 | – |
| AAGAAACAUGAGGAUCACCCAUGUGAGGAUAUGAUCAAGAAAAGAAAAGAAAGAAGAAUCAGAAGGCACAAAGG [salish99-ex1_r3_044] (puzzle: Exclusion 1) | – | – | – | 295 | 176 | 342 |
| UCGCUCCGUGUAGGAUAUCGUUGUAUGAUGCGGCGAGAAGGACAUGAGGAUCACCCAUGUAUGUUAUUAUCACGCGUGGCGCAA [Design 65] (Eterna round: R96, puzzle: Exclusion NG 1) | 18.5 | 15.3 | 20.6 | – | – | – |
| GGCUGCAAUGUAGGAUAUCUGCACGUGUAGUGCAGAGAAGGACAUGAGGAUCACCCAUGUAUAGUAGCUUCGGCUACAGCAGCC [ENG1-D3] (Eterna round: R96, puzzle: Exclusion NG 1) | 24.6 | 12.7 | 18.2 | – | – | – |
| GGAUUACAUGAGGAUCACCCAUGUGAGGAUAUCCCGACAGGUUGCAGAGAACCUCGUAGGAGAAGGCACAGGCG [EX1 B.12] (Eterna round: R97, puzzle: Exclusion 1) | 234 | – | 102 | – | – | – |
| UUUCAUCAUGUAGGAUAUGUGUGGCGAAGCUAUACAGAAGGACAUGAGGAUCACCCAUGUUCUUGCGUCUGCGUACAGAUGCAA [14th something] (Eterna round: R96, puzzle: Exclusion NG 1) | 348 | 33.1 | 43.3 | – | – | – |
| AAAAGGCAGCAGGAUAUAGUCACCAUCGGGUUGCUAGAAGGGCUAACAUGAGGAUCACCCAUGUGGGUGCAAAA [Soinsoan] (puzzle: Exclusion 6) | – | – | – | 578 | 452 | 667 |
| UUUAAUUUAAUUAAGAUCACAUGAGGAUCACCCAUGUAUAUAUAGGAUAUCAGCUCGAUUAGAGCUGAGAAGGAUAUAUACAUA [ExNG3/4-A1] (Eterna round: R96, puzzle: Exclusion NG 3) | 164 | 215 | 58.9 | – | – | – |
| UGUAUACAUGAGGAUCACCCAUGUAAGGAUAUGCUUUAUUAUUAUUAUUAUUAUUGUUGCAGAAGGUACAUUAU [LRO-Excl01-07] (Eterna round: R97, puzzle: Exclusion 1) | 26.4 | – | 25.6 | – | – | – |
| UUGACGGCAGGAUAUACAUGAGGAUCACCCAUGUAAAUUUUUCGUUUAACUUGAAUGUGUAGAAGGGCCAAACC [Ex3 #77] (Eterna round: R97, puzzle: Exclusion 3) | 19.4 | – | 20.4 | – | – | – |
| AUCCGGCAUGUAGGAUAUGGAUCCGAUUAGGAUCCAGAAGGACAUGAGGAUCACCCAUGUACAUGUAAACAGUCAUCACCGGAC [salish99_ExNG1_r04_201] (Eterna round: R96, puzzle: Exclusion NG 1) | 462 | 50.2 | 67.3 | – | – | – |

Source: the supplement of paper PMC9170038
